Data: US20240084023A1 (NGM BIOPHARMACEUTICALS, published 2024)
Where a chain is given by its changes, count along the chain named.

B1: anti-GCGR antibody 1H2 (antibody, V domains shown)
VH: QVQLQQPGAELVKPGASVKMSCKVSGYTFTSYWITWVKQRPGQGLEWIGDIHPGGGDTNYNKKFKSKATLTVDTSSSTAYMQLSSLTSEDSAVYHCTSDDNYVGFTYWGQGTLVTVSA
VL: DVLMTQTPLSLPVSLGDQASISCRSSQTIIHSDGNTYLEWYLQKPGQSPILLIYKVSNRFSGVPDRFSGSGSGTDFTLKISRVEAEDLGVYYCFQGSHVPWTFGGGTKLEIK
notes: mouse hybridoma monoclonal antibody
B2: anti-GCGR antibody 13G9 (antibody, V domains shown)
VH: QVQLQQSGAELVRPGTSVKISCKASGYTFTNYWLGWVKQRPGHGLEWIGDIYPGGDYNNYNGKFKGKATLTADTSSSTAYIQLSSLTSEDSAVYFCVRSDDGYSWGQGTTLTVSS
VL: B1 VL with T28S, I30V, H31D, D33Y, L42Q, I50T, S61A, V99I, L109V
notes: mouse hybridoma monoclonal antibody; also called 13G19
B3: anti-GCGR antibody 1C3 (antibody, V domains shown)
VH: EVQLQQSGPELVKPGASVKMSCKASGYTFTSSVMHWVKQKPGQALEWIGYINPYNDGTKYNENFKGKATLTSDRSSTTAYMELSSLTSEDSAVYYCVTGAGYDRGPMAMDYWGQGTSVTVSS
VL: NIVLTQSPASLAVSLGQRATISCRASESVDSYGDSFVHWYQQKPGQPPKLLIYFASNLESGVPARFSGSGSRTDFTLTIDPVEADDTATYYCQQNNEVPFTFGSGTKLELK
notes: as for B1
B4: anti-GCGR antibody 6B5 (antibody, V domains shown)
VH: QVQLQQSGTELVRPGTSVKISCKASGFTFTNHWLGWVKQRPGHGLEWIGDIYPGGYYINYNEKFKGKATLTADTSSSTAYMQLSSLTSEDSAVYFCARHTNYGSDYWGQGTTLTVSS
VL: DVLMTQIPLSLPVSLGDQASISCRSSQSIVDSYGNTFLEWYLQKPGQSPKLLIYKVSNRLSGVPDRFSGTGAGTDFTLKISRVEAEDLGIYYCFQGSHVPWTFGGGTKLEIK
notes: mouse hybridoma monoclonal antibody; also called 61B5
B5: anti-GCGR antibody 14F4 (antibody, V domains shown)
VH: QVQLQQSGAELVRPGTSVNMSCKATGYTFTNYWIGWVKQRPGHGLEWIGDIFPGGFYSNYNEKFKGKATLTTDTSSSTGYMQLSSLTSEDSAIYYCARIWDRGFDYWGQGTTLTVSS
VL: B4 VL with I7S, F37Y, L60F, T70S, A72S, L88R, I90L, W101Y
notes: mouse hybridoma monoclonal antibody; also called 141F4
B6: anti-GCGR antibody 4F8 (antibody, V domains shown)
VH: QVQLQQSGAELVRPGTSVTMSCKAAGYTFSNYWIGWVKQRPGHGLEWIGDIYPGGFYDNYNDKFKGKATLTTDTSSSTAYMQLSSLTSEDSAIYYCTRSGGLPGAGFTYWGQGTLVTVSA
VL: B1 VL with T28H, I30V, H31Y, I50K, K79E
notes: as for B1
B7: anti-GCGR antibody 14E9 (antibody, V domains shown)
VH: QVQLQQSGAELVRPGTSVKMSCKAAGYTFTNYWIGWVKQRPGHGLEWIGDISPGNYYTNYNAKFKDKVSLTADTSSSTAYMQLSSLTSEDSAIYYCARYDEFAYWGQGTLVTVSA
VL: B1 VL with P12S, T28S, I30V, I50K
notes: mouse hybridoma monoclonal antibody; also called 13E9
B8: anti-GCGR antibody 1C1 (antibody, V domains shown)
VH: EVQLQQSGPELVKPGATVKMSCKASGYTFTRNVIHWVKQKPGQGLEWIGYINPYNDGAKYNAKFKGKATVTSDKSSSTAYMELSSLTSEDSAVYYCARWGNYEDFAMDYWGQGTSVTVSS
VL: NIVLTQSPPSLAVSLGQRATISCRASESVDIYGNSYMHWYQQKPGQPPKLLIYLASNLESGVPARFSGSGSRTEFSLTIDPVEAGDAATYYCQQNNEDPFTFGGGTKLEIK
notes: as for B1
B9: anti-GCGR antibody 5B11 (antibody, V domains shown)
VH: QVQLQQSGAELVKPGASVKLSCKASGNTFTSHWMHWVKQRPGQGLEWIGMSHPNSGSSNYSGKFKSKATLTVDRSSSTAYMQLNSLTSEDSAVYYCARTDYDYDGDYWGQGTTLTVSS
VL: DVVLTQTPLSLPVNIGDQASISCKSSKSLLNSDGLTYLDWYLQKPGQSPQLLIYLVSNRFSGVPDRFSGSGSGTDFTLKISRVEADDLGVYYCFQSNFLPLTFGAGTKLELK
notes: as for B1
B10: anti-GCGR antibody 3H5 (antibody, V domains shown)
VH: QVQLQQSGAELVKPGASVRLSCKASGNTFTNYWMHWVKQRPGQGLEWIGMIHPNSGSTHYNEKFKNKATLTVDKSSNTAYMQLSGLTSEDSAVYYCGATADYVMDYWGQGTSVTVSS
VL: B9 VL with V2I, S26T, L35F, Y54N, D75E, T77I, D86E
notes: mouse hybridoma monoclonal antibody; also called 3H-15

Experiments:
[1] = biological target: full-length human GCGR on CHO cells (human, UniProt P47871 26-477); experiment: cell-based or functional assay
Chain of full-length human GCGR on CHO cells (P47871 26-477): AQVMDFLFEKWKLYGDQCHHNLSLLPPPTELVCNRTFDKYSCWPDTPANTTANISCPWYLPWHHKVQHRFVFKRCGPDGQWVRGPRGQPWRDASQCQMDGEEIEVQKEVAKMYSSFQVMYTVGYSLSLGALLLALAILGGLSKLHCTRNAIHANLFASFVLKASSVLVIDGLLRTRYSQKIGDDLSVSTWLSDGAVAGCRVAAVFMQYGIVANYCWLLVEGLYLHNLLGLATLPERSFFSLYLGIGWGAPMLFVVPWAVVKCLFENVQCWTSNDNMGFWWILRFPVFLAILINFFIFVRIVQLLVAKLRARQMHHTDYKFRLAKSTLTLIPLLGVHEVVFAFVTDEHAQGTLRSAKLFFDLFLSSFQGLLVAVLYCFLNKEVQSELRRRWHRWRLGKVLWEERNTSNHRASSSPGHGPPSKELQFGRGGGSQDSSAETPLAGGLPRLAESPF

[2] = biological target: T1, soluble human GCGR extracellular domain (human, UniProt P47871 26-136, limits assumed); experiment: Biacore SPR, captured antibody, soluble human GCGR extracellular domain as analyte
T1 construct: also called soluble GCGR
T1 sequence (P47871 26-136 limits assumed): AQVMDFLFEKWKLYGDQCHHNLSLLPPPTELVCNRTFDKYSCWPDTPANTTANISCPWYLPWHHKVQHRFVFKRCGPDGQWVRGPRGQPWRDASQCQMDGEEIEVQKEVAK
Experimental: In some experiments, supernatants were screened for binding to human GCGR using a Biacore SPR system. Briefly, anti-mouse Fc antibody (Sigma-Aldrich) was immobilized on all four flow cells of a CM5 chip using amine coupling reagents (GE Healthcare LifeSciences). Hybridoma supernatants were diluted three-fold with PBS-P buffer (PBS containing 0.005% P20) and injected for 30 seconds overflow cells 2, 3 and 4 to capture the test antibodies and using flow cell 1 as a reference. The next step was an injection of soluble human GCGR extracellular domain (100 nM in PBS-P buffer) at a flow rate of 50 μL/min and monitoring of the binding kinetics at 25° C. Kinetic data were collected over time and fit using the simultaneous global fit equation to yield affinity constants (KD values) for each antibody.

[3] = biological target: T1, soluble human GCGR extracellular domain; experiment: Octet epitope binning; antibody in solution on GCGR ECD held by immobilized 1C3 (competitor)
Experimental: (§1) KD values for exemplary antibodies were derived using ForteBio software. Exemplary antibodies 6B5, 13G19, 14E9, 14F4, 4F8, 1G7, l A8, I H7, 1A2, 1B4, 1C1, 1H2, 1C3, and 1D2 were immobilized on biosensor tips. Soluble human GCGR extracellular domain (500 nM) was incubated with the antibodies for 3 minutes. […] The biosensor tips with bound antibody-GCGR complex were then dipped in 61B5, 5B11, or 3H-15 antibody solution and the change in signal measured as a nm shift. If the antibody in solution recognized the same epitope as the antibody immobilized on the chip surface, then <0.1 nm shift in signal (noise level of Octet) would be observed. If the antibody in solution recognized a distinct epitope relative to the immobilized antibody, an increase in signal of >0.15 nm shift would be observed. In the latter scenario, the antibody in solution could bind to the immobilized antibody-GCGR complex (presumably to a different epitope) resulting in the observed increase in signal.

[4] = biological target: T1, soluble human GCGR extracellular domain; experiment: Octet epitope binning; antibody in solution on GCGR ECD held by immobilized 1C1 (competitor)
Experimental: as §1

[5] = biological target: T1, soluble human GCGR extracellular domain; experiment: Octet epitope binning; antibody in solution on GCGR ECD held by immobilized 1H7 (competitor)
Experimental: as §1

[6] = biological target: T1, soluble human GCGR extracellular domain; experiment: Octet epitope binning; antibody in solution on GCGR ECD held by immobilized 6B5 (competitor)
Experimental: as §1

[7] = biological target: T1, soluble human GCGR extracellular domain; experiment: Octet epitope binning; antibody in solution on GCGR ECD held by immobilized 1A2 (competitor)
Experimental: as §1

[8] = biological target: T1, soluble human GCGR extracellular domain; experiment: Octet epitope binning; antibody in solution on GCGR ECD held by immobilized 14E9 (competitor)
Experimental: as §1

[9] = biological target: T1, soluble human GCGR extracellular domain; experiment: Octet epitope binning; antibody in solution on GCGR ECD held by immobilized 14F4 (competitor)
Experimental: as §1

[10] = biological target: T1, soluble human GCGR extracellular domain; experiment: Octet epitope binning; antibody in solution on GCGR ECD held by immobilized 1A8 (competitor)
Experimental: as §1

[11] = biological target: T1, soluble human GCGR extracellular domain; experiment: Octet epitope binning; antibody in solution on GCGR ECD held by immobilized 1B4 (competitor)
Experimental: as §1

[12] = biological target: T1, soluble human GCGR extracellular domain; experiment: Octet epitope binning; antibody in solution on GCGR ECD held by immobilized 4F8 (competitor)
Experimental: as §1

[13] = biological target: T1, soluble human GCGR extracellular domain; experiment: Octet epitope binning; antibody in solution on GCGR ECD held by immobilized 1H2 (competitor)
Experimental: as §1

[14] = biological target: T1, soluble human GCGR extracellular domain; experiment: Octet epitope binning; antibody in solution on GCGR ECD held by immobilized 1G7 (competitor)
Experimental: as §1

[15] = biological target: T1, soluble human GCGR extracellular domain; experiment: Octet epitope binning; antibody in solution on GCGR ECD held by immobilized 1D2 (competitor)
Experimental: as §1

[16] = biological target: T1, soluble human GCGR extracellular domain; experiment: Octet epitope binning; antibody in solution on GCGR ECD held by immobilized 13G9 (competitor)
Experimental: as §1

Row | Binder | cAMP assay-1 IC50 [1] [nM] | Kd [2] [nM] | cAMP assay-3 IC50 [1] [nM] | cAMP assay-2 IC50 [1] [nM] | Shift on Octet by Antibody in Solution (nm) [3] [nm] | Shift on Octet by Antibody in Solution (nm) [4] [nm] | Shift on Octet by Antibody in Solution (nm) [5] [nm] | Shift on Octet by Antibody in Solution (nm) [6] [nm] | Shift on Octet by Antibody in Solution (nm) [7] [nm] | Shift on Octet by Antibody in Solution (nm) [8] [nm] | Shift on Octet by Antibody in Solution (nm) [9] [nm] | Shift on Octet by Antibody in Solution (nm) [10] [nm] | Shift on Octet by Antibody in Solution (nm) [11] [nm] | Shift on Octet by Antibody in Solution (nm) [12] [nm] | Shift on Octet by Antibody in Solution (nm) [13] [nm] | Shift on Octet by Antibody in Solution (nm) [14] [nm] | Shift on Octet by Antibody in Solution (nm) [15] [nm] | Shift on Octet by Antibody in Solution (nm) [16] [nm]
1 | B1 | 3.78 | 3.7 |  |  |  |  |  |  |  |  |  |  |  |  |  |  |  | 
2 | B2 | 7.22 | 0.25 | 0.99 |  |  |  |  |  |  |  |  |  |  |  |  |  |  | 
3 | B3 | 6.42 | 1.4 |  | 13.6 |  |  |  |  |  |  |  |  |  |  |  |  |  | 
4 | B4 | 6.42 | 0.22 | 2.07 | 12.3 | < 0.05 | < 0.05 | < 0.05 | < 0.05 | < 0.05 | < 0.05 | < 0.05 | < 0.05 | < 0.05 | < 0.05 | < 0.05 | < 0.05 | < 0.05 | < 0.05
5 | B5 | 16 | 0.57 | 6.48 |  |  |  |  |  |  |  |  |  |  |  |  |  |  | 
6 | B6 |  | 0.5 | 3.84 |  |  |  |  |  |  |  |  |  |  |  |  |  |  | 
7 | B7 | 24.6 | 0.8 | 1.32 |  |  |  |  |  |  |  |  |  |  |  |  |  |  | 
8 | B8 |  | 1.9 |  | 14.3 |  |  |  |  |  |  |  |  |  |  |  |  |  | 
9 | B9 | 7.22 | 1.2 |  |  | < 0.05 | < 0.05 | < 0.05 | < 0.05 | < 0.05 | < 0.05 | < 0.05 | < 0.05 | < 0.05 | < 0.05 | < 0.05 | < 0.05 | < 0.05 | < 0.05
10 | B10 | 24.6 | 2.2 |  |  | < 0.05 | < 0.05 | < 0.05 | < 0.05 | < 0.05 | < 0.05 | < 0.05 | < 0.05 | < 0.05 | < 0.05 | < 0.05 | < 0.05 | < 0.05 | < 0.05
